From patent US7893197B2, “Relaxin-3 chimeric polypeptides and their preparation and use” (Janssen Pharmaceutica N.V., priority 2005, dated 2011) come the findings set out here.

One experiment concerns the target T1, GPCR135 (Homo sapiens, UniProt Q9NSD7).
T1 construct: expressed in transfected cells
T1 sequence (Q9NSD7 1-469): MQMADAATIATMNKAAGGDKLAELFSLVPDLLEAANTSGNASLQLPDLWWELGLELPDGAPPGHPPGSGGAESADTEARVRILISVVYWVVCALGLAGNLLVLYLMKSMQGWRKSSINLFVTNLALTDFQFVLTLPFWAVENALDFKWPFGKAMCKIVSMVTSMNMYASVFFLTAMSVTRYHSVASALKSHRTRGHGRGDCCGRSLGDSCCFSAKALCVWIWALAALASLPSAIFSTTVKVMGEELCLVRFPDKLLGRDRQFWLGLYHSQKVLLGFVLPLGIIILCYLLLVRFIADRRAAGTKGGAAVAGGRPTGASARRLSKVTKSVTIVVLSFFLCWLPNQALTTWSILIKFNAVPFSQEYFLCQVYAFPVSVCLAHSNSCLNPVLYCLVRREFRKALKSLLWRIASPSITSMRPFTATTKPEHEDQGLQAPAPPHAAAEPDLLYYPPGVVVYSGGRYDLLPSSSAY
Description: Inhibition of forskolin stimulated β-galactosidase expression in SK-N-MC/β-gal cells. It is filed as cell-based.

The next experiment deals with T2, GPCR142 (Homo sapiens, UniProt Q8TDU9, L329S).
T2 construct: expressed in transfected cells
The experiment is described as above. It is filed as cell-based.

A further experiment deals with T3, LGR7 (Homo sapiens, UniProt Q9HBX9).
T3 construct: Human LGR7 cDNA containing the complete coding region was PCR amplified; expressed in transfected cells
T3 sequence (Q9HBX9 1-757): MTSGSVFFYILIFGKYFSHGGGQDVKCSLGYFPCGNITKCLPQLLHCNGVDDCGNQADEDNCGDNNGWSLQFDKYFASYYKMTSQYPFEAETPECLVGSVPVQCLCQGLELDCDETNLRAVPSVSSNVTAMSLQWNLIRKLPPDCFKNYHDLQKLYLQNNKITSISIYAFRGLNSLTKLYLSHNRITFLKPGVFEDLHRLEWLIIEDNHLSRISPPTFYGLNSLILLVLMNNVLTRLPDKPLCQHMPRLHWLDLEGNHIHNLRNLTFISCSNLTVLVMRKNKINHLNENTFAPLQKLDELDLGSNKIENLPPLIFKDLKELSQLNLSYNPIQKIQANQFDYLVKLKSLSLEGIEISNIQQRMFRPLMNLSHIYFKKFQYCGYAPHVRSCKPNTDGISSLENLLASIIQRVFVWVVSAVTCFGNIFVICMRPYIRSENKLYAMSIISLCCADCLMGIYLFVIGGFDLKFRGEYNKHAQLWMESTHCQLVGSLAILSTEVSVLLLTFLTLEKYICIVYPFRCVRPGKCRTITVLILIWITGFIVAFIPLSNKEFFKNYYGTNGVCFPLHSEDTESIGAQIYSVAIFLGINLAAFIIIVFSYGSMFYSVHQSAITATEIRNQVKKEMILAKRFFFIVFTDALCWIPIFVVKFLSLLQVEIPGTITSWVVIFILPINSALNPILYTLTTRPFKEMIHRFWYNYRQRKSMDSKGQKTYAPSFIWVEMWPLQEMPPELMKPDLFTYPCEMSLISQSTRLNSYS
The experiment in a line: Radioligand competition binding, [125I]-relaxin-3, live transfected COS-7 cells. On the technique in general: Loss of bound radioactivity is the signal in a displacement assay; it reports binding, not function.

The next experiment addresses T4, LGR8 (Homo sapiens, UniProt Q8WXD0).
T4 construct: Human LGR8 cDNA containing the complete coding region was PCR amplified; expressed in transfected cells
Description: Radioligand competition binding, [125I]-INSL3, live transfected COS-7 cells. Particulars: highest concentration 1 μM. An excerpt: FIGS. 3A-3D illustrate the characterization of various relaxin-3 chimeric polypeptides using radioligand binding assays. Different relaxin-3 chimeric polypeptides were characterized for their receptor binding properties for human recombinant GPCR135 (FIG. 3A), GPCR142 (FIG. 3B), LGR7 (FIG. 3C), or LGR8 (FIG. 3D). For GPCR135, GPCR142, and LGR7, [^125I]-relaxin-3 was used as the radioligand at a final concentration of 100 pM. Different unlabeled peptides were used in the binding assay as the competitors. For LGR8, [^125I]-INSL3 was used as the radioligand at a final concentration of 100 pM. Different unlabeled peptides including relaxin-3 chimeras at various concentrations were added to the binding assay as the competitors. Data represent mean±SEM (n=3).
Radioligand binding assays for LGR7 and LGR8 were performed using live COS-7 cells transiently transfected with LGR7 or LGR8 expression plasmids in 15-cm culture dishes using LipofectAmine (Invitrogen). Two days after transfection, the transfected cells were detached from the 15-cm culture dished using phosphate buffered saline (PBS) plus 10 mM EDTA, seeded into 96-well opaque poly-D-lysine coated culture plates and used for radioligand binding assays. For LGR7, [^125I]-relaxin-3 was used as the tracer. For LGR8, [^125I]-INSL3 (specific activity: 2200 Ci/mmol) was used as the tracer. [^125I]-labeled tracer was added in binding reactions at a final concentration of 100 pM in binding buffer containing DMEM plus 50 mM HEPES and 1% bovine serum albumin. Unlabeled relaxin-3 and relaxin-3 chimeric polypeptides were added at various concentrations to the binding assays as the competitors, as indicated (FIG. 3). The binding mixtures were incubated at room temperature for 1 hour. The unbound radioligand was removed by aspiration of the binding buffer. The cells were washed with PBS. The bound radioligand was counted in a scintillation counter (TopCount/NTX). The results were analyzed using Prism 3.0 program (Graphpad, San Diego, Calif.). The IC50 values represent the ligand concentrations that inhibit 50% of the maximum specific binding.

[1] abbreviates: highest concentration tested 1 μM.
Where [2] appears, read: inhibition of 5 μM forskolin stimulated β-galactosidase expression, mean ± SEM, n = 3.

T4 sequence (Q8WXD0 whole entry): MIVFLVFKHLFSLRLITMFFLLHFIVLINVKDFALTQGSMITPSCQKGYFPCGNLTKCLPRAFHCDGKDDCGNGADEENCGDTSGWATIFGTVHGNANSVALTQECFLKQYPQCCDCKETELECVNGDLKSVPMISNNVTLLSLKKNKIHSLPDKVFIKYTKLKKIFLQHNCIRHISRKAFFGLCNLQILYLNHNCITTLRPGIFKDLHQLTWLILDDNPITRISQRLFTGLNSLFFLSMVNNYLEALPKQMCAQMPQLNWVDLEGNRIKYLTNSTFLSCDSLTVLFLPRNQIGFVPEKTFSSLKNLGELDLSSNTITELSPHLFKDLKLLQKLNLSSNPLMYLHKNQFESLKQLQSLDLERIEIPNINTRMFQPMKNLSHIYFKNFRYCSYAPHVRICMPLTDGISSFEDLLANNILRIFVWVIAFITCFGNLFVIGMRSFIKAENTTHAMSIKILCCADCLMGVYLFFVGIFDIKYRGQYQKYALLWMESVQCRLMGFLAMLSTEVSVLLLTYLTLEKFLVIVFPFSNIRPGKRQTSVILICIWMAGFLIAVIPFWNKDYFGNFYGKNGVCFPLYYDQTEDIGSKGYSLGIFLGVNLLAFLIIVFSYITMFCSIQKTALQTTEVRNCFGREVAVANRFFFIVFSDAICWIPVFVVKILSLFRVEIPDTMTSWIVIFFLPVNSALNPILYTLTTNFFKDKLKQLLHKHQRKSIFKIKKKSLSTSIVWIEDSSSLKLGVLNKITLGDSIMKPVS
T2 sequence (Q8TDU9 whole entry L329S): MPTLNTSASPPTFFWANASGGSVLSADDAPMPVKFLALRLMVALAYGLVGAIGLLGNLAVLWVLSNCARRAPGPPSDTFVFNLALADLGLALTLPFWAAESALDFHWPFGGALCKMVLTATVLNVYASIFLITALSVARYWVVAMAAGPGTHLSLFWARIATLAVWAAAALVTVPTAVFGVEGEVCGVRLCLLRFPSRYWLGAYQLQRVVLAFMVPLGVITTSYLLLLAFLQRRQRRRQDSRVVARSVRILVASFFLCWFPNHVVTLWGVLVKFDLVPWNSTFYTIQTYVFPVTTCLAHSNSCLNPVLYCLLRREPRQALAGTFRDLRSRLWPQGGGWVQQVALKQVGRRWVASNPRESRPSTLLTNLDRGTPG
Description for GPCR135: (§1) In FIG. 1A, SK-N-MC/β-gal cells expressing human GPCR135 were stimulated with relaxin-3, relaxin-3 B-chain, porcine relaxin, or INSL3 at various concentrations to inhibit the forskolin stimulated β-galactosidase expression. Forskolin was added to cells at a final concentration of 5 μM to stimulate the β-galactosidase expression. FIG. 1B depicts results for SK-N-MC/β-gal cells expressing human GPCR142 stimulated as in FIG. 1A. In FIG. 1C, SK-N-MC/β-gal cells expressing human LGR7 were stimulated with relaxin-3, relaxin-3 B-chain, porcine relaxin, and INSL3 at various concentrations to induce the β-galactosidase expression. The intracellular β-galactosidase activities were measured by a colorimetric assay using CRGP as the substrate and reading the absorbance at a wavelength of 570 nm. For FIG. 1D, SK-N-MC/β-gal cells expressing human LGR8 were stimulated as in FIG. 1C.
(§2) Different chimeric polypeptides at various concentrations were added to SK-N-MC/β-gal cells expressing human GPCR135 (FIG. 4A) or GPCR142 (FIG. 4B) to inhibit forskolin stimulated β-galactosidase expression. […] In parallel, chimeric polypeptides at various concentrations were added to SK-N-MC/β-gal cells expressing human LGR7 (FIG. 4C) and LGR8 (FIG. 4D) to stimulate β-galactosidase expression. Relaxin-3 and INSL3 were used as positive controls for LGR7 and LGR8, respectively. Intracellular β-galactosidase activity was measured by a colorimetric assay using CRGP as the substrate and reading the absorbance at wavelength of 570 nm. Data represent mean±SEM (n=3).
(§3) In such SK-N-MC/β-gal cells, an increase in intracellular cAMP concentration leads to increased β-galactosidase gene expression, the activity of which is measured using Chlorophenol Red-β-D-Galactopyranoside (CPRG) as the substrate.
(§4) The inventive chimeric polypeptides were each independently tested for their ability to activate either GPCR135, GPCR142, LGR7, or LGR8, respectively, in separate pools of SK-N-MC/β-gal cells (see supra), each pool stably expressing one of the respective receptors, as indicated (FIG. 4).
(§5) Cells were seeded in 96-well tissue culture plate at a density of 30,000 cells/well in MEM plus 10% fetal serum, sodium pyruvate, penicillin, streptomycin, and G418 (400 mg/L). For cells expressing GPCR135 or GPCR142, forskolin was added to cells at a final concentration of 5 μM to stimulate intracellular cAMP accumulation. Different concentrations of each of the inventive polypeptides were then added to the cells to inhibit the forskolin induced cAMP accumulation. For cells expressing LGR7 or LGR8, intracellular cAMP was stimulated with each of the inventive chimeric polypeptides at various concentrations.
(§6) For all cells, after adding the chimeric polypeptides, cells were incubated for 6 additional hours in 37° C. incubator. The media was then aspirated and the β-galactosidase activities measured as previously described (Liu et al., 2001, Molecular Pharmacology, 59:420-426). The results were analyzed by Prism 3.0 software.
Description for GPCR142: as §1, §2, §3, §4, §5, §6
Description for LGR7: For GPCR135, GPCR142, and LGR7, [^125I]-relaxin-3 was used as the radioligand at a final concentration of 100 pM. Different unlabeled peptides were used in the binding assay as the competitors. […] Different unlabeled peptides including relaxin-3 chimeras at various concentrations were added to the binding assay as the competitors. Data represent mean±SEM (n=3).
Radioligand binding assays for LGR7 and LGR8 were performed using live COS-7 cells transiently transfected with LGR7 or LGR8 expression plasmids in 15-cm culture dishes using LipofectAmine (Invitrogen). Two days after transfection, the transfected cells were detached from the 15-cm culture dished using phosphate buffered saline (PBS) plus 10 mM EDTA, seeded into 96-well opaque poly-D-lysine coated culture plates and used for radioligand binding assays. For LGR7, [^125I]-relaxin-3 was used as the tracer. […] [^125I]-labeled tracer was added in binding reactions at a final concentration of 100 pM in binding buffer containing DMEM plus 50 mM HEPES and 1% bovine serum albumin. Unlabeled relaxin-3 and relaxin-3 chimeric polypeptides were added at various concentrations to the binding assays as the competitors, as indicated (FIG. 3). The binding mixtures were incubated at room temperature for 1 hour. The unbound radioligand was removed by aspiration of the binding buffer. The cells were washed with PBS. The bound radioligand was counted in a scintillation counter (TopCount/NTX). The results were analyzed using Prism 3.0 program (Graphpad, San Diego, Calif.). The IC50 values represent the ligand concentrations that inhibit 50% of the maximum specific binding.

Turning to “R3/I4: chimeric polypeptide: human relaxin-3 B-chain and INSL4 A-chain; mature polypeptide SEQ ID NO:22 (RAAPYGVRLCGREFIRAVIFTCGGSRWFDPFCCEVICDDGTSVKLC; Human Relaxin-3/Insulin-like 4 chimeric mature polypeptide)”, the “agonist activity at GPCR135, in words” value with GPCR135 (setting [1]) is listed as “stimulated GPCR135 or GPCR142 at the highest concentration (1 μM) tested only”. In addition, the “agonist activity at GPCR142, in words” value with GPCR142 (setting [1]) was “stimulated GPCR135 or GPCR142 at the highest concentration (1 μM) tested only”. For the same substance, the “binding to LGR7, in words” value in the experiment with LGR7 (setting [1]) is “inactive”. Moreover, in the experiment with LGR8, the “binding affinity for LGR8, in words” value is “no binding affinity”.
As for “R3/I5: chimeric polypeptide: human relaxin-3 B-chain and INSL5 A-chain; mature polypeptide SEQ ID NO:23 (RAAPYGVRLCGREFIRAVIFTCGGSRWQDLQTLCCTDGCSMTDLSALC; Human Relaxin-3/Insulin-like 5 chimeric mature polypeptide)”, the “EC50 to activate GPCR135” value with GPCR135 (setting [2]) is listed as “low nanomolar range”. For the same substance, the “EC50 to activate GPCR142” value in the experiment with GPCR142 (setting [2]) was “low nanomolar range”. Further, the “binding affinity for LGR8, in words” value with LGR8 is on record as “no binding affinity”.
For the substance “R3/I6: chimeric polypeptide: human relaxin-3 B-chain and INSL6 A-chain; mature polypeptide SEQ ID NO:24 (RAAPYGVRLCGREFIRAVIFTCGGSRWGYSEKCCLTGCTKEELSIAC; Human Relaxin-3/Insulin-like 6 chimeric mature polypeptide)”, the “affinity for LGR7” value with LGR7 (discussion) was 10 to 15 nM. For the same substance, in the experiment with LGR8, the “binding affinity for LGR8, in words” value is listed as “no binding affinity”.
